In PMC12455940 one finds stoichiometry N data, which are given here for one substance.

This test deals with leader of the capsid (LC) protein from Feline calicivirus (Feline calicivirus, Urbana strain). Nature of the test: non-reducing SDS-PAGE and western blot; total protein extracts (RIPA) of FCV-infected CrFK cells, MOI of 5, 1 to 9 hpi; Laemmli buffer without β-ME; detected with anti-LC serum; also cells untreated or treated with 5 µM 16F16. In general terms: In western blotting, separated proteins are transferred to a membrane and probed.

In the case of “leader of the capsid (LC) protein from Feline calicivirus (natural protein)”, the stoichiometry N worked out at 2.

In general, stoichiometry N refers to a count of units in the complex or per binding partner.
